From patent US20250135039A1, “INHIBITOR-RESISTANT MGMT MODIFICATIONS AND MODIFICATION OF MGMT-ENCODING NUCLEIC ACIDS” (Ensoma, Inc., priority 2022, published 2025)

B1: R135T: MGMT polypeptide with mutation R135T (protein)
chain: MDKDCEMKRTTLDSPLGKLELSGCEQGLHEIKLLGKGTSAADAVEVPAPAAVLGGPEPLMQCTAWLNAYFHQPEAIEEFPVPALHHPVFQQESFTRQVLWKLLKVVKFGEVISYQQLAALAGNPKAARAVGGAMTGNPVPILIPCHRVVCSSGAVGNYSGGLAVKEWLLAHEGHRLGKPGLGGSSGLAGAWLKGAGATSGSPPAGRN
B2: N137P: MGMT polypeptide with mutation N137P (protein)
chain: MDKDCEMKRTTLDSPLGKLELSGCEQGLHEIKLLGKGTSAADAVEVPAPAAVLGGPEPLMQCTAWLNAYFHQPEAIEEFPVPALHHPVFQQESFTRQVLWKLLKVVKFGEVISYQQLAALAGNPKAARAVGGAMRGPPVPILIPCHRVVCSSGAVGNYSGGLAVKEWLLAHEGHRLGKPGLGGSSGLAGAWLKGAGATSGSPPAGRN
B3: P138K: MGMT polypeptide with mutation P138K (protein)
chain: MDKDCEMKRTTLDSPLGKLELSGCEQGLHEIKLLGKGTSAADAVEVPAPAAVLGGPEPLMQCTAWLNAYFHQPEAIEEFPVPALHHPVFQQESFTRQVLWKLLKVVKFGEVISYQQLAALAGNPKAARAVGGAMRGNKVPILIPCHRVVCSSGAVGNYSGGLAVKEWLLAHEGHRLGKPGLGGSSGLAGAWLKGAGATSGSPPAGRN
B4: P140F: MGMT polypeptide with mutation P140F (protein)
chain: MDKDCEMKRTTLDSPLGKLELSGCEQGLHEIKLLGKGTSAADAVEVPAPAAVLGGPEPLMQCTAWLNAYFHQPEAIEEFPVPALHHPVFQQESFTRQVLWKLLKVVKFGEVISYQQLAALAGNPKAARAVGGAMRGNPVFILIPCHRVVCSSGAVGNYSGGLAVKEWLLAHEGHRLGKPGLGGSSGLAGAWLKGAGATSGSPPAGRN
B5: N137F: MGMT polypeptide with mutation N137F (protein)
chain: MDKDCEMKRTTLDSPLGKLELSGCEQGLHEIKLLGKGTSAADAVEVPAPAAVLGGPEPLMQCTAWLNAYFHQPEAIEEFPVPALHHPVFQQESFTRQVLWKLLKVVKFGEVISYQQLAALAGNPKAARAVGGAMRGFPVPILIPCHRVVCSSGAVGNYSGGLAVKEWLLAHEGHRLGKPGLGGSSGLAGAWLKGAGATSGSPPAGRN
B6: P140H: MGMT polypeptide with mutation P140H (protein)
chain: MDKDCEMKRTTLDSPLGKLELSGCEQGLHEIKLLGKGTSAADAVEVPAPAAVLGGPEPLMQCTAWLNAYFHQPEAIEEFPVPALHHPVFQQESFTRQVLWKLLKVVKFGEVISYQQLAALAGNPKAARAVGGAMRGNPVHILIPCHRVVCSSGAVGNYSGGLAVKEWLLAHEGHRLGKPGLGGSSGLAGAWLKGAGATSGSPPAGRN
B7: N137D: MGMT polypeptide with mutation N137D (protein)
chain: MDKDCEMKRTTLDSPLGKLELSGCEQGLHEIKLLGKGTSAADAVEVPAPAAVLGGPEPLMQCTAWLNAYFHQPEAIEEFPVPALHHPVFQQESFTRQVLWKLLKVVKFGEVISYQQLAALAGNPKAARAVGGAMRGDPVPILIPCHRVVCSSGAVGNYSGGLAVKEWLLAHEGHRLGKPGLGGSSGLAGAWLKGAGATSGSPPAGRN

Test system: U251 human glioblastoma cell line
Assay: in vitro FM-HCR assay of MGMT activity (mPlum O^6MeG reporter plasmid)
Type: cell-based
Settings: for Reporter expression (%) mean, O^6BG: 100 μM O^6BG; for Reporter expression (%) mean, O^6BG / Reporter expression (%) mean, DMSO: U251 cells, flow cytometry 24 h after transfection, damaged/undamaged reporter, inversely related to MGMT activity; for Reporter expression (%) mean, DMSO: 0.1% DMSO; for MGMT activity (a.u.) DMSO / MGMT activity (% of WT) DMSO: DMSO condition; for MGMT activity (a.u.) DMSO / MGMT activity (a.u.) O^6BG: determined from percent reporter expression; for MGMT activity (% of WT) DMSO / MGMT activity (% of WT) O^6BG: relative to wild-type MGMT in same condition; for Relative MGMT activity (%): MGMT activity (a.u.) in O^6BG divided by DMSO x 100, higher values indicate resistance; for MGMT activity (a.u.) O^6BG / MGMT activity (% of WT) O^6BG: O^6BG condition; for Ratio percent reporter expression (O^6BG/DMSO): lower values indicate resistance to O^6BG; for O^6BG resistance relative to WT (%): percentage difference in relative MGMT activity between variant and wild-type MGMT
From the text: The present Example includes, in part, an in vitro fluorescence multiplex host cell reactivation (FM-HCR) assay in which a reporter plasmid with O^6MeG-containing oligonucleotides is used. The oligonucleotides induce transcription errors that lead to expression of fluorescent mPlum protein. Functional MGMT will repair the O^6MeG sites and reduce mPlum expression. This represents a rapid and validated assay system to assess intracellular activity of MGMT. Further description of certain such assays is found in Nagel (2014 PNAS USA 111 (18): E1823-32, which is incorporated herein by reference.
The present Example uses an in vitro FM-HCR assay in which a reporter plasmid with 0° MeG-containing oligonucleotides is used to assay MGMT activity in cells. The O^6MeG-containing oligonucleotides induce transcription errors that lead to expression of fluorescent mPlum protein. Functional MGMT will repair the O'MeG sites and reduce mPlum expression. This represents a rapid and validated assay system to assess intracellular activity of MGMT. Further description of certain such assays is found in Nagel et al., 2014 PNAS USA 111 (18): E1823-32 and Piett et al., 2021 Nat. Protoc. 16 (9): 4265-4298, each of which is incorporated herein by reference.
The in vitro FM-HCR assay was performed using the U251 human glioblastoma cell line. The cells were cultured in DMEM with 10% FBS and passaged every three days.
To express MGMT variants in the cells, plasmids encoding each MGMT variant were designed and generated by either de novo synthesis or cloning into the pTwist EF1 Alpha Puro vector at the HindII-BamHI multiple cloning site. The pTwist EF1 Alpha Puro plasmid vector drives expression of the MGMT transcript from a human EF1-alpha promoter including intron 1 and an SV40 polyadenylation signal. Plasmids encoding the MGMT variants were purified using standard molecular biology techniques from E. coli with low endotoxins. Plasmids encoding wild-type MGMT or O^6BG-resistant MGMT^P140K were also designed and generated for use as controls.
To perform the in vitro FM-HCR assay, U251 cells were seeded in 12-well plates at a density of 50,000 cells per well in 1 mL culture media. The following day, the media was changed to 1 mL of culture media containing O^6BG (100 μM O^6BG and 0.1% DMSO final) or 0.1% DMSO; and the cells were transfected with 1,000 ng of a plasmid cocktail using Lipofectamine 3000 (ThermoFisher Scientific) at 1.8 μL Lipofectamine 3000 Reagent and 2 μL P3000 reagent in Opti-MEM medium (ThermoFisher Scientific). […] For the “undamaged” condition, the plasmid cocktail replaced the mPlum O^6MeG reporter plasmid with 100 ng of a plasmid expressing mPlum. The plasmid encoding BFP was used as an internal transfection control. For transfections where no MGMT encoding plasmid is used (no pMGMT), 250 ng of additional carrier plasmid was used to maintain a total DNA amount of 1,000 ng in each transfection. Four hours after transfection, the transfection medium was changed.
All transfected cells were analyzed by flow cytometry at 24-hours after transfection. Data was analyzed as previously described in Nagel et al., 2014 PNAS USA 111 (18): E1823-32 and Piett et al., 2021 Nat. Protoc. 16 (9): 4265-4298. For each condition, normalized reporter expression was determined by taking the product of the mPlum-positive cell count and the mean mPlum fluorescence intensity in mPlum-positive cells and dividing it by the product of the BFP-positive cell count and the mean BFP fluorescence intensity in BFP-positive cells. Next, for each MGMT variant, the percent reporter expression was determined by taking the normalized reporter expression in the “damaged” condition and dividing it by the normalized reporter expression in the “undamaged” condition, and then multiplying by 100 to obtain a percent value. […]

Molecule	Reporter expression (%) mean, O^6BG [%]	Reporter expression (%) mean, DMSO [%]	MGMT activity (a.u.) DMSO [a.u.]	MGMT activity (% of WT) DMSO	Relative MGMT activity (%)	MGMT activity (a.u.) O^6BG [a.u.]	MGMT activity (% of WT) O^6BG	Ratio percent reporter expression (O^6BG/DMSO)	O^6BG resistance relative to WT (%)
B1	101.7	27.3	3.66	67.7 % of WT	26.9	0.98	68.9 % of WT	3.72	1.7
B2	93.0	94.0	1.06	19.7 % of WT	101.1	1.08	75.3 % of WT	0.99	282.4
B3	64.0	16.3	6.12	113.3 % of WT	25.5	1.56	109.4 % of WT	3.92	−3.4
B4	76.8	25.3	3.96	73.3 % of WT	32.9	1.30	91.2 % of WT	3.04	24.5
B5	104.3	109.7	0.91	16.9 % of WT	105.1	0.96	67.1 % of WT	0.95	297.7
B6	29.3	15.7	6.38	118.1 % of WT	53.4	3.41	238.6 % of WT	1.87	102.1
B7	80.7	52.3	1.91	35.4 % of WT	64.9	1.24	86.8 % of WT	1.54	145.5
